Test results published in patent US5635216A, “Microparticle compositions containing peptides, and methods for the preparation thereof” (Eli Lilly and Company, priority 1993, dated 1997).

Legend:
[1] = test system: finishing swine; assay: Urinary urea nitrogen excretion in finishing swine after subcutaneous injection; format: in vivo; settings: b137 study, FIGS. 3 and 4; barrows, 3 micrograms/kg/day injected twice per day; all time periods for 15 days
Method: (§1) The microparticles prepared in accordance with the previous examples were used to determine the effect of somatogenin (LY293404) concentration in different PLA/PGA microparticle concentrations. Payout characteristics were measured by urinary urea nitrogen excretion and serum growth hormone levels in finishing swine. The microparticle formulations were placed in suspension, using 2% W/V sodium carboxyl-methyl-cellulose 330 (NaCMC) in Nano-pure II purified water. The suspension was injected subcutaneously in the flank. […] Urinary nitrogen reduction is a measurement of growth hormone which is stimulated by somatogenin release from microparticles. […] The reduction was the greatest for the highest loaded (25%) microparticles, and lowest for the lowest (5%) loaded microparticles. […] The vertical bars in the figures represent the relative standard deviations. The microparticles prepared in accordance with the previous examples were used to determine the payout characteristics of somatogenin (LY293404) when administered in different PLA/PLG microparticle formulations as measured by urinary urea nitrogen excretion and serum growth hormone levels in finishing swine. The microparticle formulations were placed in suspension, using 2% W/V sodium carboxyl-methyl-cellulose 330 (NaCMC) in Nano-pure II purified water. The suspension was injected subcutaneously in the flank. […]

[2] = test system: finishing swine; assay: Serum growth hormone levels in finishing swine after subcutaneous injection; format: in vivo; settings: b137 study, FIGS. 3 and 4; barrows, 3 micrograms/kg/day injected twice per day; all time periods for 15 days
Method: as §1

B1: 4-methylhippuroyl (1) porcine GHRH (2-76)--OH (peptide)
chain: GADAIFTNNYRRVLTQLSARRLLQDILSRQQGERNQEQGARVRLGRQVDSLWADQRQLALESILATLLQEHRNSQG
modifications: 4-methylhippuroyl N-terminus
notes: analog of a natural porcine GHRH prohormone
Which urinary urea excretion [1] does the source give for B1 here?
The urinary urea excretion was “reduction”.

And the “serum GH levels” value [2]?
The value was “elevation”.
